{"source": "patent CN116769729A", "about": "(UNIV SCIENCE & TECHNOLOGY CHINA, dated 2023)", "binders": {"B1": {"name": "抗CD150单克隆抗体 (produced by rat hybridoma mCD150-mAb-1, CGMCC No.45539) (antibody, V domains shown)", "VH": "QIQLVQSGPELKKPGESVKISCKASGYTFTDYAMNWVKQAPGNGLKWMGYINTQTGKPTYADDFKQRFVFSLETSASTAYLQINNLNIEDTATYFCTRYNSGNWFAYWGQGTLVTVSS", "VL": "DIQMTQTPSSMPASLGERVTISCRAGQGISNYLNWYQQKPDGAIKPLIYYTSNLQSGVPSRFSGSGSGTDYSLTISSLEPEDFAMYYCQQYDSSPYTFGAGTKLELK", "notes": "also called CD150的单抗; 抗CD150抗体"}}, "key": {"[1]": {"biological_target": "T1, 小鼠CD150 on mouse spleen cells (mouse, UniProt Q9QUM4 25-343)", "T1 construct": "This is endogenous CD150 on mouse splenocytes in the flow cytometry assay", "T1 sequence": "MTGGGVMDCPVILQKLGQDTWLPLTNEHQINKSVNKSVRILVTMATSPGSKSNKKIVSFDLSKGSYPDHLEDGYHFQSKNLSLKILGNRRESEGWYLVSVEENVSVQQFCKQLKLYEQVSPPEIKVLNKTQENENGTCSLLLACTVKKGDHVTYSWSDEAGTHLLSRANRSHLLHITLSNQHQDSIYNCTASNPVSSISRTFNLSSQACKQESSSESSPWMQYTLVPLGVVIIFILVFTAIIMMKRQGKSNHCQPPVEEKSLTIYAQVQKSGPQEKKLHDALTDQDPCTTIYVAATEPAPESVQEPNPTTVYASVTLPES", "assay": "flow cytometry on mouse spleen cells"}, "[2]": {"biological_target": "T2, 小鼠CD150胞外段蛋白 (CD150m, hFc removed by TEV cleavage) (mouse, UniProt Q9QUM4 25-242)", "T2 construct": "The monomeric protein was used; In the BLI assay the protein was biotinylated (biotin-CD150); also called CD150蛋白; biotin-CD150", "T2 sequence": "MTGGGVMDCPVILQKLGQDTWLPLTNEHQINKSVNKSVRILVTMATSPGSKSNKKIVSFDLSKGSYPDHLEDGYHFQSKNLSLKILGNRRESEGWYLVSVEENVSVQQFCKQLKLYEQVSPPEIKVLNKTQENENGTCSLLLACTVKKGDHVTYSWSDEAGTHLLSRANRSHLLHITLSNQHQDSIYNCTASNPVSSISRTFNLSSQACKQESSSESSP", "assay": "indirect ELISA, CD150 protein coated at 0.25 μg/ml, HRP anti-rat IgG detection"}}, "data": [{"binder": "B1", "values": [{"measurement": "binding result", "setting": "[1]", "result": "binds"}, {"measurement": "EC50", "setting": "[2]", "result": 1.13, "unit": "µg/mL"}]}]}
